These results are taken from a protein production outcome set (Wang et al. 2014).

This series is described as follows: label from the status in PepcDB records.

As to “MRRVLMVNFGVLLLFCFGVLSNSFGQDNGGDSDINSTTAVYIVTLRQASSLHLFQQEAEEVKRVRDQSKHGDTSKFTRPKLQPRNISRSRYWRSRRSAIAQAHDSLLRNALKGEKYIKLYSFHYLINGFAVFVSSQQAETLSRRREVANIVLDFSVRTATTYTPQFMGLPKGAWVKEGGYETAGEGIVIGFIDTGIDPTHPSFNGTDTSQRQYPIPNHFSGVCEVTPDFPSGSCNRKLVGARHFAQSAITRGIFNSSEDYASPFDGDGHGTHTASIAAGNHGVSAVVSGHNFGSASGIAPRAHISVYKALYKSFGGFAADVVAAIDQAAQDGVDILSLSITPNRRPPGVATFFNPLDMAMLSAVKAGIFVVQAAGNTGPSPKSMSSFSPWIFTVGAASHDRDYSNSIVLGNNVSIPGVGLALRTDEGKKYTMISALDALKNKSSVVDKDMYVGECQDYGSFDKDVIRGNLLICSYSIRFVLGLSTIKQALAVAKNLSAKGVVFYMDPYVLGFQINPTPMDMPGIIIPSAEDSKVLLKYYNSSLVRDGTTKEIVRFGAVAAIAGGQNANFSNRAPKIMYYSARGPDPQDSLFNDADILKPNLVAPGNSIWGAWSSAATESTEFEGESFAMMSGTSMAAPHVAGVAALVKQKFRKFSPSAIASALSTTSVLFDNKGEAIMAQRAYANPDQTISPATPFDMGNGFVNATAALDPGLIFDTSFEDYMSFLCGINGSAPVVFNYTGTNCLRNNATISGSDLNLPSITVSKLNNTRTVQRLMTNIAGNETYTVSLITPFDVLINVSPTQFSIASGETKLLSVILTAKRNSSISSFGGIKLLGNAGHIVRIPVSVTVKIASKQ”, the protein production entry is reported as “failed”.

With “MRSLCAGGRAIGLSGPDSRRHHRPQGPSEGASLILPDLSSSIAVGALIYWMLLLTIKHVFADFIFQNKWMAMGKDAKTGWALPLLAHCSVHLVMTTLLMLILAPRYWYIGVIDFLIHLAIDRLKGFLVATYDVTNQDRWFWWLIGTDQALHHLTGFGLAIVLAANP”, the protein production entry is on record as “failed”.

As for “MRSQALRADVLMLITAVIWGSAFVAQTSGMNHIGPFLYSGLRFALGSLCLLPLVLRKTPTDRQPEPLLNRGLLLGGVLMGLALALGINLQQVGLMFTTVTNAGFITGLYVIVVPLLGLLIGHKTGLGTWLGAVLAVVGMFLLSVSDSFHVASGDWLQLIGAFVWGGHVILVGVFAGRHDPIRLAFLQFATCAVVSLILALCLEPLRWEAIVGAGPAILYGGVVAVGIGYTLQVIAQKDAIASHAAIILSLEAVFAAIAGAWLLDESLQARGYFGCALMLSGMLVAQLWPQKPHSSTTTQRA”, the protein production entry is “failed”.

In the case of “MRSTKTNAMEAIMKKFMGIATAAVFGLGIFTTSAKAETIVTTDVLNVRENPTTESKVVGKLLDGYKVNVLHTENGWSKVQLNSGKEAFISADYTKDTYYVTANVLNVRAGANTDSEILGKLKKDDVIETTHQVQNDWIQFEYNGKTAYVHVPYLTGKAPVKVQPVAKVEKTTTVQDTAKVREAAKAQEVAETQAKAKAVEATKAREAAEAQAEVKAQEAAKAREAAKAQEAAKAQADAEAQAEVKAQEAAKAREAAKAQADAEAQAAAKAQEAAKAREAAKAQEAAEAREAAKAQEAREAAKAQEAAKAQKSATQQPVAKETETSTPSSSRELRVVATAYTADPLENGYKAGDQVKSALGHNLTANPNMKLIAVDPSVIPLGSKVWVEGYGVAIAGDTGGAIKGNKIDVLMPDKGSSSSWGRKTVTVKVLNLEHHHHHH”, the protein production entry is given as “not failed”.

Take “MRSYRAQGPLPGFYHYYPGVPAVVGVRVEERVNFCPAVWNTGLSADPPLFGVSISPKRFTHGLLLKARRFSASFHPFGQKDLVHWLGSHSGREVDKGQAPHFLGHTGVPILEGAYAAYELELLEVHTFGDHDLFVGRVVAVWEEEGLLDEKGRPKPGLALLYYGKGLYGRPAEETFAP”: the protein production result was “not failed”.

With “MRTERWWQDTSVTDHLFRQFGRFEFIQATRLLRHVPYHMDQTQWASEFQFGSSLALSFPKTEIEHLAQSDERIEMTSLVVGLTGTQGALPYTYTNKLKQSSRQQRREIQAFLGLFNHTLTVQYVDASLVHHLPVRYEVEQENHYLNILHALNGYISSHHQHNELDEYFAEFAGLMQGQNNTAHALTTMLTCIFKQKVMVKEFIREKFYLSDEQKTCLGGAQPSLLGINTFCGDTIEQIDGKIEIQIGPLKRKQYLDFLPSGRASTQLKHILATWCSPTLLVDLRLILDQDDVQPFCLDSVHQMGLGQGVFLTSQASNQDNQDTCYSLIGAVA”, the protein production entry is listed as “failed”.

Regarding “MRTKNILAALALFLGISLPSLVEAANAYATGNVNVRTGPGTRYPRTGTIPAGATLTIRGCLNGYSWCEVIFAGQSGWASSNYLQATYQNRRRPVIHIGPVIGLPVIVHKPRPPHWEHRPRPPRPPHWGHRPRPPHWDHRPRPPRPQPRLEHHHHHH”, the protein production entry is listed as “not failed”.
